Experimental findings from paper PMC4969796 (The Journal of General Physiology, 2016) are described below.

The data set deals with the molecule itself. Description: SDS-PAGE.

For orientation: stoichiometry N means a count of units in the complex or per binding partner.

B1: L24C/R117C KcsA (before chymotrypsin) (natural protein)
chain: MPPMLSGLLARLVKLLLGRHGSACHWRAAGAATVLLVIVLLAGSYLAVLAERGAPGAQLITYPRALWWSVETATTVGYGDLYPVTLWGRLVAVVVMVAGITSFGLVTAALATWFVGCEQERRGHFVRHSEKAAEEAYTRTTRALHERFDRLERMLDDNRR
In the case of B1, the “stoichiometry N” value came out at 4.
